# From PMC11342776, “Protein kinase Hsl1 phosphorylates Pah1 to inhibit phosphatidate phosphatase activity and regulate lipid synthesis in Saccharomyces cerevisiae” (The Journal of Biological Chemistry, 2024)
# Substrate: Nc1ncnc2c1ncn2[C@@H]1O[C@H](COP(=O)(O)OP(=O)(O)OP(=O)(O)O)[C@@H](O)[C@H]1O
# Experiment: purified protein
# Type: biochemical, Saccharomyces cerevisiae
# Conditions: 500 nM Pah1 as protein substrate, 10 mM MgCl2, 2 mM DTT, pH 7.5, 30 °C, labelled compound
protein,measurement,value
"Hsl1 (Saccharomyces cerevisiae S288C) (protein, full-length with C-terminal TAP tag kept (chromosomal HSL1-TAP); IgG-Sepharose purified from S. cerevisiae, endogenously phosphorylated; ~190 kDa on gel) MTGHVSKTSHVPKGRPSSLAKKAAKRAMAKVNSNPKRASGHLERVVQSVNDATKRLSQPDSTVSVATKSSKRKSRDTVGPWKLGKTLGKGSSGRVRLAKNMETGQLAAIKIVPKKKAFVHCSNNGTVPNSYSSSMVTSNVSSPSIASREHSNHSQTNPYGIEREIVIMKLISHTNVMALFEVWENKSELYLVLEYVDGGELFDYLVSKGKLPEREAIHYFKQIVEGVSYCHSFNICHRDLKPENLLLDKKNRRIKIADFGMAALELPNKLLKTSCGSPHYASPEIVMGRPYHGGPSDVWSCGIVLFALLTGHLPFNDDNIKKLLLKVQSGKYQMPSNLSSEARDLISKILVIDPEKRITTQEILKHPLIKKYDDLPVNKVLRKMRKDNMARGKSNSDLHLLNNVSPSIVTLHSKGEIDESILRSLQILWHGVSRELITAKLLQKPMSEEKLFYSLLLQYKQRHSISLSSSSENKKSATESSVNEPRIEYASKTANNTGLRSENNDVKTLHSLEIHSEDTSTVNQNNAITGVNTEINAPVLAQKSQFSINTLSQPESDKAEAEAVTLPPAIPIFNASSSRIFRNSYTSISSRSRRSLRLSNSRLSLSASTSRETVHDNEMPLPQLPKSPSRYSLSRRAIHASPSTKSIHKSLSRKNIAATVAARRTLQNSASKRSLYSLQSISKRSLNLNDLLVFDDPLPSKKPASENVNKSEPHSLESDSDFEILCDQILFGNALDRILEEEEDNEKERDTQRQRQNDTKSSADTFTISGVSTNKENEGPEYPTKIEKNQFNMSYKPSENMSGLSSFPIFEKENTLSSSYLEEQKPKRAALSDITNSFNKMNKQEGMRIEKKIQREQLQKKNDRPSPLKPIQHQELRVNSLPNDQGKPSLSLDPRRNISQPVNSKVESLLQGLKFKKEPASHWTHERGSLFMSEHVEDEKPVKASDVSIESSYVPLTTVATSSRDPSVLAESSTIQKPMLSLPSSFLNTSMTFKNLSQILADDGDDKHLSVPQNQSRSVAMSHPLRKQSAKISLTPRSNLNANLSVKRNQGSPGSYLSNDLDGISDMTFAMEIPTNTFTAQAIQLMNNDTDNNKINTSPKASSFTKEKVIKSAAYISKEKEPDNSDTNYIPDYTIPNTYDEKAINIFEDAPSDEGSLNTSSSESDSRASVHRKAVSIDTMATTNVLTPATNVRVSLYWNNNSSGIPRETTEEILSKLRLSPENPSNTHMQKRFSSTRGSRDSNALGISQSLQSMFKDLEEDQDGHTSQADILESSMSYSKRRPSEESVNPKQRVTMLFDEEEEESKKVGGGKIKEEHTKLDNKISEESSQLVLPVVEKKENANNTENNYSKIPKPSTIKVTKDTAMESNTQTHTKKPILKSVQNVEVEEAPSSDKKNWFVKLFQNFSSHNNATKASKNHVTNISFDDAHMLTLNEFNKNSIDYQLKNLDHKFGRKVVEYDCKFVKGNFKFKIKITSTPNASTVITVKKRSKHSNTSSNKAFEKFNDDVERVIRNAGRS",Km,31 µM
